The text below walks through data of US20260152557A1 (Adimab, published 2026).

Substitutions are numbered along the chain they refer to.

B1: Fab of ADI-48587 (Antibody No. 2) (Fab, V domains shown)
VH: QVQLVQSGAEVKKPGASVKVSCKASGFNIKDYYMHWVRQAPGQRLEWMGWIDLENANTIYDAKFQGRVTITRDTSASTAYMELSSLRSEDTAVYYCARDHYHRYFYDVWGQGTLVTVSS
VL: DIVMTQSPDSLAVSLGERATINCKSSQSLLNARTGHNYLAWYQQKPGQPPKLLIYWASTRESGVPDRFSGSGSGTDFTLTISSLQAEDVAVYYCKQSHSHRTFGGGTKVEIK
notes: Fab made by papain digestion of the human IgG1 (yeast- or CHO-produced); also called Antibody No. 2 Fab; ADI-48587 Fab
B2: Fab of ADI-74966 (Antibody No. 4) (Fab, V domains shown)
VH: B1 VH
VL: B1 VL with H98Y
notes: Fab made by papain digestion of the human IgG1 (yeast- or CHO-produced); also called Antibody No. 4 Fab; ADI-74966 Fab
B3: Fab of ADI-79848 (Antibody No. 9) (Fab, V domains shown)
VH: B1 VH with H100A, H102G
VL: B1 VL with H98Y, H100R
notes: Fab made by papain digestion of the yeast-produced human IgG1; also called Antibody No. 9 Fab; ADI-79848 Fab
B4: Fab of ADI-79842 (Antibody No. 7) (Fab, V domains shown)
VH: B1 VH with H102G
VL: B1 VL with H36K, H98Y, H100R
notes: Fab made by papain digestion of the yeast-produced human IgG1; also called Antibody No. 7 Fab; ADI-79842 Fab
B5: Fab of ADI-79843 (Antibody No. 8) (Fab, V domains shown)
VH: B1 VH with H100A
VL: B1 VL with H36K, H98Y, H100R
notes: Fab made by papain digestion of the yeast-produced human IgG1; also called Antibody No. 8 Fab; ADI-79843 Fab
B6: Fab of ADI-79844 (Antibody No. 10) (Fab, V domains shown)
VH: B1 VH with H100A, H102G
VL: B1 VL with H36K, H100R
notes: Fab made by papain digestion of the yeast-produced human IgG1; also called Antibody No. 10 Fab; ADI-79844 Fab
B7: Fab of ADI-79845 (Antibody No. 11) (Fab, V domains shown)
VH: B1 VH with H100A, H102G
VL: B1 VL with H36K, H98Y
notes: Fab made by papain digestion of the yeast-produced human IgG1; also called Antibody No. 11 Fab; ADI-79845 Fab
B8: ADI-48587 (Antibody No. 2), human IgG1 (antibody, V domains shown)
VH: B1 VH
VL: B1 VL
notes: Tested as human IgG1 (yeast-produced aglycosylated, or CHO-produced); also called Ab No. 2; parent pH-dependent antibody
B9: ADI-74966 (Antibody No. 4), human IgG1 (antibody, V domains shown)
VH: B1 VH
VL: B1 VL with H98Y
notes: Tested as human IgG1 (yeast-produced aglycosylated, or CHO-produced)
B10: ADI-74965 (Antibody No. 3), human IgG1 (antibody, V domains shown)
VH: B1 VH with H100A
VL: B1 VL
notes: as for B9
B11: ADI-74967 (Antibody No. 5), human IgG1 (antibody, V domains shown)
VH: B1 VH
VL: B1 VL with D1G, H36K
notes: as for B9
B12: ADI-74968 (Antibody No. 6), human IgG1 (antibody, V domains shown)
VH: B1 VH with H100A
VL: B1 VL with H98Y
notes: as for B9

T1 sequence (chain, as listed by the source mutant, form in doubt, chain 1 of 2): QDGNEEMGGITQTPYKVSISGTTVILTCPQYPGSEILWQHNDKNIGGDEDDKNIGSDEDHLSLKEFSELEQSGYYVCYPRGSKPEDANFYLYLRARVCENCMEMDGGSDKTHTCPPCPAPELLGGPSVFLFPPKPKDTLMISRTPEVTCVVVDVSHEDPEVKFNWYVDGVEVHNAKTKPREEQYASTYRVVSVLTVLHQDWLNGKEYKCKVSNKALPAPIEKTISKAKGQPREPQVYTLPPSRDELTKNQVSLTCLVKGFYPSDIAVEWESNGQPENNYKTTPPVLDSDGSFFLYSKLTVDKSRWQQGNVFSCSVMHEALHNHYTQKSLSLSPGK
T1 sequence (P04234 22-100, stated change not applied, form in doubt, chain 2 of 2): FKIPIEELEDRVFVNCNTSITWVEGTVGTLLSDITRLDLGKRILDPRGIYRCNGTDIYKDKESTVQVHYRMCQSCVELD

The first assay has as its target T1, human CD3εδ-Fc heterodimer (Hu CD3ε Fc / CD3δ Fc-HIS) (human, UniProt P04234 22-100).
T1 construct: range 22-100; Produced in HEK 293 cells with a heterologous signal peptide; heterodimer purified by Ni Sepharose and Mono Q; also called Hu CD3εδ Fc heterodimer; CD3εδ Fc-HIS heterodimer; not shown: Fc-HIS part of CD3δ Fc-HIS
Kind of assay: SPR (Biacore 8K), yeast-produced Fab, monovalent, pH 6.0. How it is done:
(§1) Anti-CD3 antibodies (Antibody Nos. 1-13) were produced as human IgG1 antibodies in yeast or Chinese hamster ovary (CHO) cells, and Fab fragments were generated from the IgG1 antibodies by papain digestion and purified IgGs produced in yeast were aglycosylated. CHO produced IgGs had standard CH2 glycosylation. […] Monovalent binding affinity to human or cynomolgus CD3εδ-Fc at pH 7.4 and pH 6.0 were measured via surface plasmon resonance (SPR) using the BIACORE® 8K (Cytiva, previously GE Healthcare Life Sciences) system and analyzed using BIACORE® Evaluation Software.
(§2) BIACORE® KD measurements (surface plasmon resonance; SPR). BIACORE® affinity measurements were performed generally as previously described. Briefly, human CD3εδ-Fc heterodimer produced as described above was immobilized to a NiNTA sensor chip in a BIACORE® 8K (Cytiva, previously GE Healthcare Life Sciences) to a response level of ˜500 RUs. […] The sensor chip was doubly regenerated between cycles using 0.35 M EDTA and 0.1 M NaOH. The resulting data were double reference subtracted and fit to a 1:1 binding model using BIACORE® Evaluation Software.
(SPR reads the build-up and loss of mass on a sensor chip optically.)
What is called Kd is the concentration at which binding is half-saturated. Read a low Kd as a tighter complex. In turn, B1 yielded a Kd of 15.7 nM.

As for B2, binding was characterised by a dissociation constant (Kd) of 16.3 nM.

The molecule B3 registered a Kd of 5.76 nM.

As for B4, binding was put at a Kd of 6.16 nM.

For the molecule B5, the Kd was 0.796 nM.

On to B6, for which binding was put at a Kd of 2.34 nM.

Molecule B7 yielded a dissociation constant (Kd) of 1.96 nM.

The target of a further assay is T2, cynomolgus CD3 on HSC-F cells (cynomolgus, UniProt Q95LI5 22-198).
T2 construct: whole, on cells; also called Cyno HSC-F; cynomolgus HSC-F cells
T2 sequence (Q95LI5 22-198): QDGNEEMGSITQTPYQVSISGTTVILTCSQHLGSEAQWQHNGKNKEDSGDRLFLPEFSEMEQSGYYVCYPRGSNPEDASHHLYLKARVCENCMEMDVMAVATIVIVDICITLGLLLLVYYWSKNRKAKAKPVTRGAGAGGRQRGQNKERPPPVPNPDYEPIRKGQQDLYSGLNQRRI
The assay is described as follows: flow cytometry, yeast-produced IgG 100 nM on HSC-F cells, pH 7.4. The protocol: (§3) Anti-CD3 antibodies Antibody Nos. 1-13 were produced as aglycosylated IgGs comprising a IgG1 Fc region in yeast cells. Binding to human or cynomolgus CD3-expressing cells (human CD3+ Jurkat cells or cynomolgus HSC-F cells, respectively) at pH 7.4 and pH 6.0 were measured by fluorescence-activated single cell sorting (FACS). Normalized cell binding (NCB) values were calculated based on median fluorescence intensity (MFI) values, CD3 negative Jurkat cells were used as a negative control.
(§4) Cell binding assay, CD3+ and CD3− human Jurkat cells (ATCC) and cynomolgus HSC-F cells (NIH) were thawed and washed with cold PBSF buffer, pH 7.4 (PBS+0.1% BSA, pH 7.4). About 200,000 cells were aliquoted per well of a 96-well plate (FACS Assay Plate VWR BD 353263) and pelleted by centrifugation (5 minutes at 500×g). The cells were washed with either PBSF pH 7.4 or PBSF pH 6.0 (PBS+0.1% BSA, pH 6.0), and then resuspended in 100 μl in either PBSF pH 7.4 or PBSF pH 6.0 with IgG antibody (100 nM) produced in yeast as described above. The mixture (cells+antibody) was incubated for 20 minutes on ice, then washed twice with either PBSF pH 7.4 or PBSF pH 6.0. Cells were resuspended in 50 μl of propidium iodide (Roche; 1:500 dilution) and anti-human IgG-RPE (Southern Biotech; 1:100 dilution) prepared in either PBSF pH 7.4 or PBSF pH 6.0, then incubated for 20 minutes on ice in the dark before cells were washed twice with either PBSF pH 7.4 or PBSF pH 6.0. Binding was analyzed on FACS Canto 11.
On the technique in general: In flow cytometry, cells or beads pass a laser one at a time.
For the molecule B8, the NCB is 0.

Molecule B9 came in with an NCB of 0.

Consider B10, for which the NCB was 74.

In turn, B11 displayed an NCB of 81.

B12 gave an NCB of 106.

The target in the next assay is T1, human CD3εδ-Fc heterodimer (Hu CD3ε Fc …). The assay is described as follows: SPR (Biacore 8K), yeast-produced Fab, monovalent, pH 7.4. The protocol:
as §1, §2
B3 came in with a Kd of 33.4 nM.

Molecule B4 registered a Kd of 32.6 nM.

Regarding B5, binding was put at a Kd of 5.9 nM.

B6 yielded a dissociation constant Kd of 3.45 nM.

In turn, B7 yielded a dissociation constant Kd of 8.5 nM.

The target is the same in another assay. Kind of assay: BLI (Octet), yeast-produced IgG on AHC sensor, CD3εδ-Fc 100 nM in solution, pH 6.0. The protocol:
(§5) Anti-CD3 antibodies Antibody Nos. 1-13 were produced as human IgG1 antibodies in yeast or CHO cells. IgGs produced in yeast were aglycosylated, CHO) produced IgGs had standard CH2 glycosylation. Binding affinity to human or cynomolgus CD3εδ-Fc at pH 7.4 and pH 6.0 was measured via biolayer interferometry (BLI) using the ForteBio OCTET® HTX system and analyzed using the ForteBio software.
(§6) Kinetics were analyzed using the 1:1 binding model.
On the technique in general: Biolayer interferometry detects binding as a change in optical thickness at a sensor tip.
On to B8, for which the Kd came out at 9.33 nM.

On to B9, for which the Kd came out at 6.95 nM.

In turn, B10 yielded a dissociation constant Kd of 6.68 nM.

In turn, B11 returned a Kd of 5.94 nM.

B12 had a Kd of 5.23 nM.

For a further assay, the target named is T3, cynomolgus CD3εδ-Fc heterodimer (Cy CD3ε Fc / CD3δ Fc-HIS) (cynomolgus, UniProt Q95LI8 22-100).
T3 construct: range 22-100; Produced in HEK 293 cells; also called Cy CD3εδ Fc heterodimer; not shown: Fc-HIS part of CD3δ Fc-HIS
T3 sequence (chain, as listed by the source mutant, form in doubt, chain 1 of 2): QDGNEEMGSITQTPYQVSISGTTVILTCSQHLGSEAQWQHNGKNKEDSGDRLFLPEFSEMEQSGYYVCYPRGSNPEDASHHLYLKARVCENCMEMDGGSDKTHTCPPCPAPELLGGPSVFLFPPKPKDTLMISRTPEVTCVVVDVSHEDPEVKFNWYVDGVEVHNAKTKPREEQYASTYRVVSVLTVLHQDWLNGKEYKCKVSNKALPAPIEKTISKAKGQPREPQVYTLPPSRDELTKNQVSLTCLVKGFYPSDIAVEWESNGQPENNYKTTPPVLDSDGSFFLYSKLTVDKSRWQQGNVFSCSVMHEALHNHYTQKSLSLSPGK
T3 sequence (Q95LI8 22-100, stated change not applied, form in doubt, chain 2 of 2): as the sequence (P04234 22-100, stated change not applied, form in doubt, chain 2 of 2) above, with I5V, N15K, I20V, S32T, D33N, I34N, T64A, S74N counted along it
The description is as above. The protocol:
as §5, §6
For the molecule B9, the Kd was 9.71 nM.

B10 yielded a Kd of 6.56 nM.

Molecule B11 registered a Kd of 7.38 nM.

B12 displayed a Kd of 5.26 nM.

Another assay concerns the target T1, human CD3εδ-Fc heterodimer (Hu CD3ε Fc …). Kind of assay: SPR (Biacore 8K), CHO-produced Fab, monovalent, pH 6.0. How it is done: as §1, §2
For B1, binding was put at a Kd of 43.2 nM.

In turn, B2 yielded a dissociation constant (Kd) of 19.5 nM.

Another assay addresses T3, cynomolgus CD3εδ-Fc heterodimer (Cy …). The description is as above. How it is done:
as §1, §2
B1: the affinity, expressed as Kd, was 25.4 nM.

Molecule B2 came in with a Kd of 26.1 nM.

The next assay addresses T1, human CD3εδ-Fc heterodimer (Hu CD3ε Fc …). The assay is described as follows: BLI (Octet), yeast-produced IgG on AHC sensor, CD3εδ-Fc 100 nM in solution, pH 7.4. How it is done:
as §5, §6
Take B10: the Kd is 13.7 nM.

B11 registered a dissociation constant Kd of 14.5 nM.

On to B12, for which the Kd is 13 nM.

The target in the next assay is T3, cynomolgus CD3εδ-Fc heterodimer (Cy …). The assay is described as above. The protocol:
as §5, §6
B9: binding was characterised by a dissociation constant (Kd) of 47.6 nM.

Take B10: the Kd was found to be 21.8 nM.

Molecule B11 returned a Kd of 21.9 nM.

Take B12: the Kd worked out at 20.5 nM.

For the next assay the target is unchanged. The assay is described as follows: BLI (Octet), CHO-produced IgG on AHC sensor, CD3εδ-Fc 100 nM in solution, pH 6.0. The protocol:
as §5, §6
The molecule B8 registered a Kd of 451 nM.

The molecule B9 showed a dissociation constant Kd of 209 nM.

Take B10: binding was characterised by a dissociation constant (Kd) of 33.5 nM.

For the molecule B11, the Kd was 37 nM.

B12 showed a Kd of 17 nM.

The next assay deals with T4, human CD3 on CD3+ Jurkat cells (human, UniProt P07766 23-207).
T4 construct: whole, on cells; The whole CD3 complex stands on the cells; also called Human CD3 Jurkat; human CD3+ Jurkat cells
T4 sequence (P07766 23-207): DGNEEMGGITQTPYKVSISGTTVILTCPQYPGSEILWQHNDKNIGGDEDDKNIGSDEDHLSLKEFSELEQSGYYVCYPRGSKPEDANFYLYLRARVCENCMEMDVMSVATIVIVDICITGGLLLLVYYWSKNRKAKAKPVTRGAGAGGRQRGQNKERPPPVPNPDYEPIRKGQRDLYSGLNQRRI
Kind of assay: flow cytometry, yeast-produced IgG 100 nM on CD3+ Jurkat cells, pH 7.4. How it is done:
as §3, §4
Molecule B8 showed an NCB of 0.

As to B9, the NCB amounted to 0.

B10 registered an NCB of 39.

Turning to B11, the NCB came to 34.

The molecule B12 came in with an NCB of 62.

The target of the next assay is T4, human CD3 on CD3+ Jurkat cells. Kind of assay: flow cytometry, yeast-produced IgG 100 nM on CD3+ Jurkat cells, pH 6.0. How it is done: as §3, §4
The molecule B8 yielded an NCB of 149.

The molecule B9 gave an NCB of 131.

B10 returned an NCB of 181.

Molecule B11 yielded an NCB of 185.

For the molecule B12, the NCB stood at 197.

The target of another assay is T1, human CD3εδ-Fc heterodimer (Hu CD3ε Fc …). The assay is described as follows: BLI (Octet), CD3εδ-Fc on AHC sensor, CHO-derived Fab 100 nM in solution, pH 6.0.
With B1, the Kd is 65.9 nM.

Molecule B2 returned a Kd of 36.7 nM.

Another assay concerns the target T3, cynomolgus CD3εδ-Fc heterodimer (Cy …). Kind of assay: SPR (Biacore 8K), CHO-produced Fab, monovalent, pH 7.4. The protocol:
as §1, §2
Consider B1, for which the affinity, expressed as Kd, was 62.7 nM.

The target in another assay is T2, cynomolgus CD3 on HSC-F cells. Kind of assay: flow cytometry, yeast-produced IgG 100 nM on HSC-F cells, pH 6.0. The protocol: as §3, §4
B8 returned an NCB of 437.

In the case of B9, the NCB stood at 378.

Molecule B10 returned an NCB of 551.

B11 came in with an NCB of 512.

With B12, the NCB turned out to be 548.
